Assay in all cases: cell-based or functional assay
Assay [1] addresses T1, human GIP receptor (human) (UniProt P48546).
T1 sequence (looked up): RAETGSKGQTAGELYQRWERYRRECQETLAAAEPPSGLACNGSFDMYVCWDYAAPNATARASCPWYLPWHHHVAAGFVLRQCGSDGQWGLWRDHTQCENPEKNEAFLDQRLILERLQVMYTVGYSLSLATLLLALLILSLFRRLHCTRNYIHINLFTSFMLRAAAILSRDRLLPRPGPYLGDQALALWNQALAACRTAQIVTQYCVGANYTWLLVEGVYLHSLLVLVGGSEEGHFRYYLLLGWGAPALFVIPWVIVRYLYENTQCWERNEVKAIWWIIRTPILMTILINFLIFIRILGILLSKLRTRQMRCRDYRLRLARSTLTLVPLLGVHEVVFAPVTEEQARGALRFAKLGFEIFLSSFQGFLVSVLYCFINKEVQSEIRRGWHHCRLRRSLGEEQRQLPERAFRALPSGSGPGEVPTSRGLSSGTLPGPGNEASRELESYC

Assay [2] deals with human glucagon receptor (human) (UniProt P47871).
The next assay addresses hGLP-1R (Homo sapiens, UniProt P43220).

human glucagon receptor (human), sequence (P47871 26-477): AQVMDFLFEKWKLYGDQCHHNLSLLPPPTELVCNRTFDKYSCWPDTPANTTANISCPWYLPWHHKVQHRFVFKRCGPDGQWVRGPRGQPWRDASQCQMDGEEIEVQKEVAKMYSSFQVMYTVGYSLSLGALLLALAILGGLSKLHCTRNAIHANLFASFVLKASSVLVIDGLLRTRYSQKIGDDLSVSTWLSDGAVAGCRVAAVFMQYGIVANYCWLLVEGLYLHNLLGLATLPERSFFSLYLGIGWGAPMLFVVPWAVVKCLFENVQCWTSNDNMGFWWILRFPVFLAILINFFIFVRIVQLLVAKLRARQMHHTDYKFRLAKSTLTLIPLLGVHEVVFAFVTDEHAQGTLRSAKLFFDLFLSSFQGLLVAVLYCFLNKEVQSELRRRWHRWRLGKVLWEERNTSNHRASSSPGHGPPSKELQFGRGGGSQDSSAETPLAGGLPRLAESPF
hGLP-1R, sequence (P43220 24-463): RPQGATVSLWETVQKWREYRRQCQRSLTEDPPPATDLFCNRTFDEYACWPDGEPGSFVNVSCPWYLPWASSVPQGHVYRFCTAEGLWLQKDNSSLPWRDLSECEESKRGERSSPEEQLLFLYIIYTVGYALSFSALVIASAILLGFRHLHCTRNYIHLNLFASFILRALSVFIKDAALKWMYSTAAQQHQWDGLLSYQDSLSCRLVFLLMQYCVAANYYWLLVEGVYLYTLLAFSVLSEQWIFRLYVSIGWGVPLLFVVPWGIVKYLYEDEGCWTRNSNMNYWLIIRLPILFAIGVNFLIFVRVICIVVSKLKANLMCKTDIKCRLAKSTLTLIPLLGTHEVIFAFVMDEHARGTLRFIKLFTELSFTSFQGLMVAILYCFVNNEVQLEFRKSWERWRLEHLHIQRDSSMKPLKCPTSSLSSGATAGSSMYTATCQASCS

B1: Example 906 (peptide)
chain: YXQGTFTSDXSKXLDKKAQXAFIEYLIEXGPSSGAPPPSGSEEE
modifications: synthetic construct; SITE 2: note = 2-Aminoisobutyric Acid; SITE 10: note = 3-(4-Pyridyl)-L-alanine; SITE 13: note = alpha-methyl-leucine; SITE 17: note = Lysine is chemically modified through conjugation of the epsilon-amino group of the Lysine side chain with (gamma-Glu)2-CO-(CH2)16-CO2H; SITE 20:
B1: the Relative cAMP EC50 in assay [1] is 0.212 nM; in assay [2] it was 14.7 nM; with hGLP-1R it was 2.48 nM. Moreover, the cAMP Rel EC50 (1% HSA) was found to be 15.4 nM in assay [1], 1170 nM in assay [2] and 236 nM in the assay with hGLP-1R.

B2: Example 904 (peptide)
chain: YXQGTFTSDXSKXLDKKAQXAFIEYLIEXGPSSGAPPPSGSE
modifications: synthetic construct; SITE 2: note = 2-Aminoisobutyric Acid; SITE 10: note = 3-(4-Pyridyl)-L-alanine; SITE 13: note = alpha-methyl-leucine; SITE 17: note = Lysine is chemically modified through conjugation of the epsilon-amino group of the Lysine side chain with (gamma-Glu)2-CO-(CH2)16-CO2H; SITE 20:
Consider B2, for which the Relative cAMP EC50 in assay [1] came out at 0.194 nM; in assay [2], 9.88 nM; in the assay with hGLP-1R, 1.94 nM. Also, the cAMP Rel EC50 (1% HSA) in assay [1] is 15 nM; in assay [2], 1330 nM; with hGLP-1R, 198 nM.

B3: Example 927 (peptide)
chain: YXQGTFTSDXSQXLDKKAQXAFIEYLIEXGPSSGAPPPSGSE
modifications: Aib, 4Pal, Me4Pal, alpha-methyl-Leu, lipidated Lys, amide; synthetic construct; SITE 2: note = 2-Aminoisobutyric Acid; SITE 10: note = 3-(4-Pyridyl)-L-alanine; SITE 13: note = alpha-methyl-leucine; SITE 17: note = Lysine is chemically modified through conjugation of the epsilon-amino group of the Lysine side chain with D-Glutamic acid-(gamma-Glu)-D-Glutamic
Consider B3, for which the cAMP Rel EC50 (1% HSA) came to 22.2 nM in assay [1], 1210 nM in assay [2] and 584 nM with hGLP-1R.

B4: Example 924 (peptide)
chain: YXQGTFTSDXSQXLDKKAQXAFIEYLIEXGPSSGAPPPSGSE
modifications: C-terminal amide; lysine acylated with γ-Glu-C18 diacid; synthetic construct; SITE 2: note = 2-Aminoisobutyric Acid; SITE 10: note = 3-(4-Pyridyl)-L-alanine; SITE 13: note = alpha-methyl-leucine; SITE 17: note = Lysine is chemically modified through conjugation of the epsilon-amino group of the Lysine side chain with D-Glutamic acid-(gamma-Glu)-CO-(CH2)16
In the case of B4, the cAMP Rel EC50 (1% HSA) was 15.7 nM in assay [1], 910 nM in assay [2] and 402 nM with hGLP-1R.

B5: Example 925 (peptide)
chain: YXQGTFTSDXSQXLDKKAQXAFIEYLIEXGPSSGAPPPSGSE
modifications: acylated lysine γGlu-C18 diacid; non-natural residues; C-terminal amide; synthetic construct; SITE 2: note = 2-Aminoisobutyric Acid; SITE 10: note = 3-(4-Pyridyl)-L-alanine; SITE 13: note = alpha-methyl-leucine; SITE 17: note = Lysine is chemically modified through conjugation of the epsilon-amino group of the Lysine side chain with (D-Glutamic acid)2-(gamma-Glu)-CO-(CH2)
On to B5, for which the cAMP Rel EC50 (1% HSA) in assay [1] was found to be 23 nM; in assay [2], 2500 nM; with hGLP-1R, 708 nM.

B6: Example 926 (peptide)
chain: YXQGTFTSDXSQXLDKKAQXAFIEYLIEXGPSSGAPPPSGSE
modifications: γGlu-C18 diacid on Lys; non-natural residues; amide; synthetic construct; SITE 2: note = 2-Aminoisobutyric Acid; SITE 10: note = 3-(4-Pyridyl)-L-alanine; SITE 13: note = alpha-methyl-leucine; SITE 17: note = Lysine is chemically modified through conjugation of the epsilon-amino group of the Lysine side chain with (gamma-Glu)-(D-Glutamic acid)2-CO-(CH2)
As to B6, the cAMP Rel EC50 (1% HSA) in assay [1] was 13.5 nM; in assay [2], 1380 nM; with hGLP-1R, 600 nM.

B7: Example 905 (peptide)
chain: YXQGTFTSDXSKXLDKKAQXAFIEYLIEXGPSSGAPPPSGSEE
modifications: synthetic construct; SITE 2: note = 2-Aminoisobutyric Acid; SITE 10: note = 3-(4-Pyridyl)-L-alanine; SITE 13: note = alpha-methyl-leucine; SITE 17: note = Lysine is chemically modified through conjugation of the epsilon-amino group of the Lysine side chain with (gamma-Glu)2-CO-(CH2)16-CO2H; SITE 20:
As to B7, the Relative cAMP EC50 in assay [1] turned out to be 0.217 nM; in assay [2], 12.3 nM; in the assay with hGLP-1R it was 2.52 nM. Further, the results for the cAMP Rel EC50 (1% HSA) (in assay [1]; in assay [2]; in the assay with hGLP-1R) were 10.4 nM, 1390 nM and 215 nM, respectively.

B8: Example 928 (peptide)
chain: YXQGTFTSDXSQXLDKKAQXAFIEYLIEXGPSSGAPPPSGSEE
modifications: acylated lysine γGlu-C18 diacid; non-natural residues; C-terminal amide; synthetic construct; SITE 2: note = 2-Aminoisobutyric Acid; SITE 10: note = 3-(4-Pyridyl)-L-alanine; SITE 13: note = alpha-methyl-leucine; SITE 17: note = Lysine is chemically modified through conjugation of the epsilon-amino group of the Lysine side chain with D-Glutamic acid-(gamma-Glu)-CO-(CH2)16
As for B8, the cAMP Rel EC50 (1% HSA) in assay [1] worked out at 15.1 nM; in assay [2], 1090 nM; with hGLP-1R, 604 nM.

B9: Example 931 (peptide)
chain: YXQGTFTSDXSQXLDKKAQXAFIEYLIEXGPSSGAPPPSGSEE
modifications: acylated Lys e-γGlu-e-C18 diacid; non-natural residues; C-terminal amide; synthetic construct; SITE 2: note = 2-Aminoisobutyric Acid; SITE 10: note = 3-(4-Pyridyl)-L-alanine; SITE 13: note = alpha-methyl-leucine; SITE 17: note = Lysine is chemically modified through conjugation of the epsilon-amino group of the Lysine side chain with D-Glutamic acid-(gamma-Glu)-D-Glutamic
As for B9, the cAMP Rel EC50 (1% HSA) stood at 20.8 nM in assay [1], 2300 nM in assay [2] and 878 nM with hGLP-1R.

B10: Example 929 (peptide)
chain: YXQGTFTSDXSQXLDKKAQXAFIEYLIEXGPSSGAPPPSGSEE
modifications: non-natural residues, γGlu-C18 diacid acyl on K, C-terminal amide; synthetic construct; SITE 2: note = 2-Aminoisobutyric Acid; SITE 10: note = 3-(4-Pyridyl)-L-alanine; SITE 13: note = alpha-methyl-leucine; SITE 17: note = Lysine is chemically modified through conjugation of the epsilon-amino group of the Lysine side chain with (D-Glutamic acid)2-(gamma-Glu)-CO-(CH2)
In the case of B10, the cAMP Rel EC50 (1% HSA) in assay [1] is 22.6 nM; in assay [2], 2690 nM; in the assay with hGLP-1R it was 593 nM.

B11: Example 930 (peptide)
chain: YXQGTFTSDXSQXLDKKAQXAFIEYLIEXGPSSGAPPPSGSEE
modifications: acylated Lys γGlu-(e)2-C18 diacid; non-natural residues; C-terminal amide; synthetic construct; SITE 2: note = 2-Aminoisobutyric Acid; SITE 10: note = 3-(4-Pyridyl)-L-alanine; SITE 13: note = alpha-methyl-leucine; SITE 17: note = Lysine is chemically modified through conjugation of the epsilon-amino group of the Lysine side chain with (gamma-Glu)-(D-Glutamic acid)2-CO-(CH2)
Take B11: the cAMP Rel EC50 (1% HSA) in assay [1] was 19.9 nM; in assay [2], 1700 nM; with hGLP-1R, 824 nM.

B12: Example 907 (peptide)
chain: YXQGTFTSDXSKXLDKKAQXAFIEYLIEXGPSSGAPPPSGS
modifications: synthetic construct; SITE 2: note = 2-Aminoisobutyric Acid; SITE 10: note = 3-(4-Pyridyl)-L-alanine; SITE 13: note = alpha-methyl-leucine; SITE 17: note = Lysine is chemically modified through conjugation of the epsilon-amino group of the Lysine side chain with (gamma-Glu)2-CO-(CH2)16-CO2H; SITE 20:
In the case of B12, the results for the Relative cAMP EC50 (in assay [1]; in assay [2]; in the assay with hGLP-1R) were 0.103 nM, 5.79 nM and 1.15 nM, respectively. In addition, the figures for the cAMP Rel EC50 (1% HSA) (in assay [1]; in assay [2]; with hGLP-1R) were 8.86 nM, 1210 nM and 123 nM, respectively.

B13: Example 908 (peptide)
chain: YXQGTFTSDXSKXLDKKAQXAFIEYLIEGGPSSGAPPPSGS
modifications: synthetic construct; SITE 2: note = 2-Aminoisobutyric Acid; SITE 10: note = 3-(4-Pyridyl)-L-alanine; SITE 13: note = alpha-methyl-leucine; SITE 17: note = Lysine is chemically modified through conjugation of the epsilon-amino group of the Lysine side chain with (2-[2-(2-Amino-ethoxy)-ethoxy]-acetyl)
With B13, the Relative cAMP EC50 in assay [1] is 0.246 nM; in assay [2], 8.11 nM; with hGLP-1R, 1.2 nM. For the same molecule, the cAMP Rel EC50 (1% HSA) in assay [1] stood at 26.7 nM; in assay [2] it was 980 nM; with hGLP-1R it was 174 nM.

B14: Example 916 (peptide)
chain: YXQGTFTSDXSKXLDKKAQXAFIEXLIEXGPSSGAPPPSGS
modifications: Aib, 4Pal, αMeL, Me4Pal; lysine acylated C18 diacid; amide; synthetic construct; SITE 2: note = 2-Aminoisobutyric Acid; SITE 10: note = 3-(4-Pyridyl)-L-alanine; SITE 13: note = alpha-methyl-leucine; SITE 17: note = Lysine is chemically modified through conjugation of the epsilon-amino group of the Lysine side chain with (2-[2-(2-Amino-ethoxy)-ethoxy]-acetyl)
With B14, the cAMP Rel EC50 (1% HSA) was determined as 4.78 nM in assay [1], 158 nM in assay [2] and 166 nM with hGLP-1R.

Source of the values: patent publication US20240270821A1, “GIP/GLP1/GCG TRI-RECEPTOR AGONISTS AND USES THEREOF” (priority 2023, published 2024).
